This is an account of results in paper doi:10.1101/2024.12.02.626349 (bioRxiv, 2024).

In general, Kd refers to the free concentration of one partner at which half of the binding sites on the other are occupied at equilibrium, for simple one-to-one binding. The low end stands for higher affinity, the high end for lower affinity.

The test addresses ^15N-labeled wild-type untagged ubiquitin (UniProt P0CG48 1-76, ^15N-labeled). The test can be described thus: NMR titration.

B1: 6xHis-tagged UBR4-UBL (residues 4340-4463) (domain or fragment)
chain: YPEENEVTEFFVTLEKDPQQEDFLQGRMPGNPYSSNEPGIGPLMRDIKNKICQDCDLVALLEDDSGMELLVNNKIISLDLPVAEVYKKVWCTTNEGEPMRIVYRMRGLLGDATEEFIESLDSTT
Take B1: the Kd amounted to 124 µM.
